Test results as given in a protein production outcome set (Wang et al. 2014).

Test: label from the status in PepcDB records
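Further: failed if final PepcDB status was selected cloned or expressed and not failed if soluble or beyond.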

Sequence	protein production
MERSAIQIPAGRIDDAVAKVDGLVGELMQNTGIPGMAVAIVHGGKTLYAKGFGVRDVGKGGGPDNKVDADTVFQLASVSKSVGATVVAHAVTDNVVTWDTPVVSKLPWFALRDPYVTGQVTIADLYSHRSGLPDHAGDLLEDLGYDRRQVLQRLKYLPLAPFRISYAYTNFGVTAAAEAVAAAAGQSWEDLSDEVLYRPLGMGSTSSRFTDFLARPNHAVNHVKVADRWEARYQRDPDAQSPAGGVSSSLNDMTHWLAMVLADGVYNGRRITSPEALLLVYTPQVISRHPVSPRARASFYGYGFNVGVTSSGRTEYSHSGAFGLGAAANFVVLPSEDLAIIALTNAGPIGVPETLTAEFMDLVQYGQVREDWAALYKKAFAPLNELAGSLVGKQSPANPAPSRPLNDYVGVYANDYWGPATVTYHDGQLRLSLGPKNQTFDLTHWDGDTFTFTLSTENALPGSISKATFAGDTLNLEYYDADKLGTFTRLEHHHHHH	failed
MSSLTARWHRSIQEIPEQHWQALVSDHAIPFYRWSWLEALESSGSIIPEQGWQPLHLALWRGDVPIAVAPLYLKGHSYGEFVFDQTFARLAGDLGLRYYPKLLGMSPVSPVLGYRFHVLPGEDEAELTAVLLRAIDAFCEHNSILSCNFLYVDPQWRPLAEAAGCATWLNQQSLWSRGDDQSFDDYLNGFNANQRRNIKRERKAVAKAGLTVTPLTGEQLDLELFQIMHGFYEQHCARWGPWGSKYLEQGFFEALAGLHREQVVLFSAHRGDPREPVAMSMCVRDDHHLWGRYWGSEEEIDCLHFEVCYYAPIEWAISQGIDSFDPGAGGSHKRRRGFVARPHASLHRWYQPQMDGLIRAWLPKVNGLMLEEIEAINAELPFKADAPSLSL	failed
METVRPMVVAPKGNKLRRKFAKVLNIHKLTGVAPEGEMKKIKFDSKTAKLSESFYKLEEEYERSQGLEALLAKLFATVSSIKAAYAQLQHSQSPYDSIGIQKADNLVVAELKTLSELKQCFMKKQVDPNPERTLVLAEIQELRSLLKTYEIMGKKLESQYKLKDSEIIFLREKLDESMKQNKLTEKRLNQSGQLCNPLDNLHLSALNPTHFVTYLHHTVKSTRGFVKLMIEQMKLAGWDISSAANSIHPGVFYYKQDHKCFTFEHFVSNVMFEAFHLPYFSTSSESRSYKKKKQSNADREMFFERFKELRSMKAKDYLTARPKSRFARFCRAKYLQLIHPKMEQAFFGHLHLRNQVSAGEFPETSLFSGFLEMAKRIWLLHCLALSFEREAEIFRVPKGCRFSEVYMKSVAEEAFFPAAESSPESEPRVAFTVVPGFRIGKTSIQCEVYLSLS	failed
MVQVEKGHVAVVFLNDPERRNPLSPEMALSLLQALDDLEADPGVRAVVLTGRGKAFSAGADLAFLERVTELGAEENYRHSLSLMRLFHRVYTYPKPTVAAVNGPAVAGGAGLALACDLVVMDEEARLGYTEVKIGFVAALVSVILVRAVGEKAAKDLLLTGRLVEAREAKALGLVNRIAPPGKALEEAKALAEEVAKNAPTSLRLTKELLLALPGMGLEDGFRLAALANAWVRETGDLKEGIRAFFEKRPPRF	not failed
SPEYGMPSVTFGSVHPSDVLDMPVDPNEPTYCLCHQVSYGEMIGCDNPDCSIEWFHFASCGADNQPRGKWXFPRCSQE	not failed
MTQPVPVHYTLRPVSPEAHLFEATVTISHPAKDGQVFFLPAWIPGSYMIREFSKHIVGMAASAGGKPVALRQLEKNRWQAAPAKGALTLRYQVYAFDLSVRGAYLDGERGFFNGTSVFLAAEGYEGEACTVDIHAPEGKAYAEWKVATSLPAEDVKKKTGFGRYRAADYDELIDHPVEMGDFKKVSFKACGVPHEFVVSGRFQGELKRLAEDTRKICECQIKLFGEPAPFDRYVFMLFVGKDIYGGLEHRASTALVANRDDLPAPGAAEIGDGYLKLLGLISHEYFHSWNVKRMKPAAFTPYDLNREGMTRLLWAFEGITSYYDDLTLVRCGLIDEKRYLGLLAETITGVQRGAGRLKQTLEQSSFEAWTKYYRQDENSPNSIVSYYTKGSLAALALDLLIRRDSKGKQSLDDVMRALWAKWLADGKGLEEGEWEKIAIETTGLKLKPFFDLALRSTGELPLAELLKSQGVELKFEAAQGASDRGGVVDAFAGKPAPLTLGVKTAADAAGVKLLQVLDGGAAQAAGLSGGDVVVAVDKLRAYDLDKQIARFAAGDKIKLHAFRRDELMTFEVAPQAAPEDTCRLKLDAGGGKWIAGRLEHHHHHH	failed
SSRKSGIGHEASLKRKAEEKLESYRKKIHMKNQAEEKAAEQFRMRLKNKQDEMKLEGDLRRSQRACQQLDVQKNIQVPREAWYWLRLEEETEEDEEEKEQDEDEYKSEDLSVLEKLQILTSYLREEHLYCIWCGTAYEDKEDLSSNCPGPTSADHD	failed
MQSTIVIVNLLGAVALLLFGLAQVKDGVTRAFGMKLRSVLATGTQNGPRSFFSGFFATVALQSSTATALTVASFAERDLIKPRMAQVVLLGANVGTAVTAWIVAAGVEWLSPLLILAGIILKKGSSNARQGGGTAVIGIGLMLLSLHLLSGATEPMRASPALGVFIGLLDGAWPVALIFSAVLAFVSSSSLAVVVLILSLTATGTLSTGLIIVLILGANLGGAIPPVIATLSGPASARRITIGNLVVRTIGCLIAMPLASYGATYLQQLPLSPAKLPVDAHLIFNLILATLAWPFSGLISDLMAKLVPGDPKAEDGPNFLDQQALDVPVVALANATREVLSVGDSIERMLIRAENAFKHNDLAPLQEVALLEKKVDRRQQEVKVYLSQLGRKGLTDEEARRSIAIIDYAINLEHIGDIIEKGICEQIRKKVLNSFKFSDDGYEELKTLFDMTIENLRAAQSILVTGDFELARRLMESKVDIRRLEKQSSNRHLERLRDGLAESMQTSSLHLDMLRDLKRINAHIVTVAHPILDESGVLIESRLRYAEPRA	failed
MKKGSLAIVLGSLLASGAFYTALADGMPAKQQHNNTGESVELHFHYPIKGKQEPKNSHLVVLIEPKIEINKVIPESYQKEFEKSLFLQLSSFLERKGYSVSQFKDASEIPQDIKEKALLVLRMDGNVAILEDIVEESDALSEEKVIDMSSGYLNLNFVEPKSEDIIHSFGIDVSKIKAVIERVELRRTNSGGFVPKTFVHRIKETDHDQAIRKIMNQAYHKVMVHITKELSKKHMEHYEKVSSEMKKRK	failed
PLKRSLPPDTAITKTDRVTVKGEEVPYEVTTGTQPVYGDDDTAVASLHYTYYRRSDVDDRSGRPLMISFNGGPGSGSLWMHLGYTSPKHLLISDEGYPVQPYGVEDNNQSIIDVADIVYVNPVNTGFSRVIDDDTDAEQFFGVNADVDYLADWIDTFISRHGRWRSPKYLIGESYGTTRVAGLAGELQNSHWTYLNGVILVSPTGLGMEPAGPSPRSEALKLPYYAATAWYHEQLPDALQSRDLQALLSEVEDYTIEEYIPAVTRGGFVEDARRQAVAQQVARYSGLSEPFVLDHNLAVPADAFWKELLQDEGRTVGRLDSRYEGIDVTNAGSEYDYPAELTAWNHAFTPAINHYLRDDLGFTTDLQYNTFGNVYPWDETENNTGAQLREAMAQNPYLHVMVQSGYYDGATDYFSAKYVMWNLGTRETMRDRLRFEGYRSGHMMYLRSEDLATSNEDIRTFIEESIPDEGTPARYGRNR	failed
